{
  "source": "paper PMC5955458",
  "about": "“Secreted Giardia intestinalis cysteine proteases disrupt intestinal epithelial cell junctional complexes and degrade chemokines” (Virulence, 2018)",
  "key": {"[1]": {"system": "Cc1cc(=O)oc2cc(NC(=O)[C@H](CCCNC(=N)N)NC(=O)[C@H](Cc3ccccc3)NC(=O)OCc3ccccc3)ccc12", "assay": "purified protein", "settings": "4 mM DTT, 10 mM EDTA"}, "[2]": {"system": "Cc1cc(=O)oc2cc(NC(=O)[C@H](CCCNC(=N)N)NC(=O)[C@H](CCCNC(=N)N)NC(=O)OCc3ccccc3)ccc12", "assay": "purified protein", "settings": "4 mM DTT, 10 mM EDTA"}, "[3]": {"settings": "pH 5.5, 37°C, sodium acetate buffer"}, "[4]": {"settings": "pH 6, 37°C, sodium phosphate buffer, pre-activated 120 min at pH 5.5"}, "[5]": {"settings": "pH 5.5, 37°C, sodium acetate buffer, pre-activated 120 min at pH 5.5, pH 5.5"}, "[6]": {"settings": "pH 6, 37°C, sodium phosphate buffer"}},
  "data": [
    {"substance": "CP14019 (Giardia lamblia ATCC 50803)", "values": [
      {"measurement": "Km", "setting": "[1]; [3]", "value": "3.17 ± 0.34", "unit": "µM"},
      {"measurement": "kcat/Km", "setting": "[1]; [3]", "value": "179000 to 237000", "unit": "M⁻¹ s⁻¹"},
      {"measurement": "Km", "setting": "[2]; [3]", "value": "5.11 ± 1.11", "unit": "µM"},
      {"measurement": "kcat/Km", "setting": "[2]; [3]", "value": "5410 to 9840", "unit": "M⁻¹ s⁻¹"}
    ]},
    {"substance": "CP16160 (Giardia lamblia ATCC 50803)", "values": [
      {"measurement": "Km", "setting": "[1]; [4]", "value": "9.40 ± 1.46", "unit": "µM"},
      {"measurement": "kcat/Km", "setting": "[1]; [4]", "value": "43000 to 67700", "unit": "M⁻¹ s⁻¹"},
      {"measurement": "Km", "setting": "[2]; [5]", "value": "5.60 ± 1.00", "unit": "µM"},
      {"measurement": "kcat/Km", "setting": "[2]; [5]", "value": "58600 to 96100", "unit": "M⁻¹ s⁻¹"}
    ]},
    {"substance": "CP16779 (Giardia lamblia ATCC 50803)", "values": [
      {"measurement": "Km", "setting": "[1]; [6]", "value": "0.96 ± 0.24", "unit": "µM"},
      {"measurement": "kcat/Km", "setting": "[1]; [6]", "value": "1.02e+06 to 2.06e+06", "unit": "M⁻¹ s⁻¹"},
      {"measurement": "Km", "setting": "[2]; [6]", "value": "5.40 ± 0.75", "unit": "µM"},
      {"measurement": "kcat/Km", "setting": "[2]; [6]", "value": "10500 to 14800", "unit": "M⁻¹ s⁻¹"}
    ]}
  ]
}
